The target in this test is phosphorylated microtubule-associated protein (pMAP) labelled by the 12E8 antibody (chick (endogenous in primary chick neurons)). The test is described as follows: FRET or BRET. (In general: In BRET a luciferase serves as donor, and the signal depends on an acceptor being close.)

Substance “human cofilin-GFP (from UniProt P23528 1-166) (natural protein)” yielded an FRET efficiency of 41%.

The values above are taken from article PMC2821881.
